{
  "source": "patent US20100113557A1",
  "about": "(ST MARIANNA UNIVERSITY SCHOOL OF MEDICINE, published 2010)",
  "binders": {"B1": {"name": "BRCA1 (endogenous) (other, UniProt P38398 1-1863, looked up)", "chain": "MDLSALRVEEVQNVINAMQKILECPICLELIKEPVSTKCDHIFCKFCMLKLLNQKKGPSQCPLCKNDITKRSLQESTRFSQLVEELLKIICAFQLDTGLEYANSYNFAKKENNSPEHLKDEVSIIQSMGYRNRAKRLLQSEPENPSLQETSLSVQLSNLGTVRTLRTKQRIQPQKTSVYIELGSDSSEDTVNKATYCSVGDQELLQITPQGTRDEISLDSAKKAACEFSETDVTNTEHHQPSNNDLNTTEKRAAERHPEKYQGSSVSNLHVEPCGTNTHASSLQHENSSLLLTKDRMNVEKAEFCNKSKQPGLARSQHNRWAGSKETCNDRRTPSTEKKVDLNADPLCERKEWNKQKLPCSENPRDTEDVPWITLNSSIQKVNEWFSRSDELLGSDDSHDGESESNAKVADVLDVLNEVDEYSGSSEKIDLLASDPHEALICKSERVHSKSVESNIEDKIFGKTYRKKASLPNLSHVTENLIIGAFVTEPQIIQERPLTNKLKRKRRPTSGLHPEDFIKKADLAVQKTPEMINQGTNQTEQNGQVMNITNSGHENKTKGDSIQNEKNPNPIESLEKESAFKTKAEPISSSISNMELELNIHNSKAPKKNRLRRKSSTRHIHALELVVSRNLSPPNCTELQIDSCSSSEEIKKKKYNQMPVRHSRNLQLMEGKEPATGAKKSNKPNEQTSKRHDSDTFPELKLTNAPGSFTKCSNTSELKEFVNPSLPREEKEEKLETVKVSNNAEDPKDLMLSGERVLQTERSVESSSISLVPGTDYGTQESISLLEVSTLGKAKTEPNKCVSQCAAFENPKGLIHGCSKDNRNDTEGFKYPLGHEVNHSRETSIEMEESELDAQYLQNTFKVSKRQSFAPFSNPGNAEEECATFSAHSGSLKKQSPKVTFECEQKEENQGKNESNIKPVQTVNITAGFPVVGQKDKPVDNAKCSIKGGSRFCLSSQFRGNETGLITPNKHGLLQNPYRIPPLFPIKSFVKTKCKKNLLEENFEEHSMSPEREMGNENIPSTVSTISRNNIRENVFKEASSSNINEVGSSTNEVGSSINEIGSSDENIQAELGRNRGPKLNAMLRLGVLQPEVYKQSLPGSNCKHPEIKKQEYEEVVQTVNTDFSPYLISDNLEQPMGSSHASQVCSETPDDLLDDGEIKEDTSFAENDIKESSAVFSKSVQKGELSRSPSPFTHTHLAQGYRRGAKKLESSEENLSSEDEELPCFQHLLFGKVNNIPSQSTRHSTVATECLSKNTEENLLSLKNSLNDCSNQVILAKASQEHHLSEETKCSASLFSSQCSELEDLTANTNTQDPFLIGSSKQMRHQSESQGVGLSDKELVSDDEERGTGLEENNQEEQSMDSNLGEAASGCESETSVSEDCSGLSSQSDILTTQQRDTMQHNLIKLQQEMAELEAVLEQHGSQPSNSYPSIISDSSALEDLRNPEQSTSEKAVLTSQKSSEYPISQNPEGLSADKFEVSADSSTSKNKEPGVERSSPSKCPSLDDRWYMHSCSGSLQNRNYPSQEELIKVVDVEEQQLEESGPHDLTETSYLPRQDLEGTPYLESGISLFSDDPESDPSEDRAPESARVGNIPSSTSALKVPQLKVAESAQSPAAAHTTDTAGYNAMEESVSREKPELTASTERVNKRMSMVVSGLTPEEFMLVYKFARKHHITLTNLITEETTHVVMKTDAEFVCERTLKYFLGIAGGKWVVSYFWVTQSIKERKMLNEHDFEVRGDVVNGRNHQGPKRARESQDRKIFRGLEICCYGPFTNMPTDQLEWMVQLCGASVVKELSSFTLGTGVHPIVVVQPDAWTEDNGFHAIGQMCEAPVVTREWVLDSVALYQCQELDTYLIPQIPHSHY", "notes": "Endogenous protein, precipitated from cell lysate with an anti-BRCA1 antibody; also called endogenous BRCA1"}},
  "molecular_target": "T1, HERC2 (hect domain and RCC-like domain 2) (human, UniProt O95714 1-4834)",
  "T1 construct": "Endogenous protein of 293T or HeLa cells, found in BRCA1 immune precipitates from cell lysates; also called endogenous HERC2",
  "T1 sequence (O95714 other isoform, or with tags, fused parts or gaps limits assumed)": "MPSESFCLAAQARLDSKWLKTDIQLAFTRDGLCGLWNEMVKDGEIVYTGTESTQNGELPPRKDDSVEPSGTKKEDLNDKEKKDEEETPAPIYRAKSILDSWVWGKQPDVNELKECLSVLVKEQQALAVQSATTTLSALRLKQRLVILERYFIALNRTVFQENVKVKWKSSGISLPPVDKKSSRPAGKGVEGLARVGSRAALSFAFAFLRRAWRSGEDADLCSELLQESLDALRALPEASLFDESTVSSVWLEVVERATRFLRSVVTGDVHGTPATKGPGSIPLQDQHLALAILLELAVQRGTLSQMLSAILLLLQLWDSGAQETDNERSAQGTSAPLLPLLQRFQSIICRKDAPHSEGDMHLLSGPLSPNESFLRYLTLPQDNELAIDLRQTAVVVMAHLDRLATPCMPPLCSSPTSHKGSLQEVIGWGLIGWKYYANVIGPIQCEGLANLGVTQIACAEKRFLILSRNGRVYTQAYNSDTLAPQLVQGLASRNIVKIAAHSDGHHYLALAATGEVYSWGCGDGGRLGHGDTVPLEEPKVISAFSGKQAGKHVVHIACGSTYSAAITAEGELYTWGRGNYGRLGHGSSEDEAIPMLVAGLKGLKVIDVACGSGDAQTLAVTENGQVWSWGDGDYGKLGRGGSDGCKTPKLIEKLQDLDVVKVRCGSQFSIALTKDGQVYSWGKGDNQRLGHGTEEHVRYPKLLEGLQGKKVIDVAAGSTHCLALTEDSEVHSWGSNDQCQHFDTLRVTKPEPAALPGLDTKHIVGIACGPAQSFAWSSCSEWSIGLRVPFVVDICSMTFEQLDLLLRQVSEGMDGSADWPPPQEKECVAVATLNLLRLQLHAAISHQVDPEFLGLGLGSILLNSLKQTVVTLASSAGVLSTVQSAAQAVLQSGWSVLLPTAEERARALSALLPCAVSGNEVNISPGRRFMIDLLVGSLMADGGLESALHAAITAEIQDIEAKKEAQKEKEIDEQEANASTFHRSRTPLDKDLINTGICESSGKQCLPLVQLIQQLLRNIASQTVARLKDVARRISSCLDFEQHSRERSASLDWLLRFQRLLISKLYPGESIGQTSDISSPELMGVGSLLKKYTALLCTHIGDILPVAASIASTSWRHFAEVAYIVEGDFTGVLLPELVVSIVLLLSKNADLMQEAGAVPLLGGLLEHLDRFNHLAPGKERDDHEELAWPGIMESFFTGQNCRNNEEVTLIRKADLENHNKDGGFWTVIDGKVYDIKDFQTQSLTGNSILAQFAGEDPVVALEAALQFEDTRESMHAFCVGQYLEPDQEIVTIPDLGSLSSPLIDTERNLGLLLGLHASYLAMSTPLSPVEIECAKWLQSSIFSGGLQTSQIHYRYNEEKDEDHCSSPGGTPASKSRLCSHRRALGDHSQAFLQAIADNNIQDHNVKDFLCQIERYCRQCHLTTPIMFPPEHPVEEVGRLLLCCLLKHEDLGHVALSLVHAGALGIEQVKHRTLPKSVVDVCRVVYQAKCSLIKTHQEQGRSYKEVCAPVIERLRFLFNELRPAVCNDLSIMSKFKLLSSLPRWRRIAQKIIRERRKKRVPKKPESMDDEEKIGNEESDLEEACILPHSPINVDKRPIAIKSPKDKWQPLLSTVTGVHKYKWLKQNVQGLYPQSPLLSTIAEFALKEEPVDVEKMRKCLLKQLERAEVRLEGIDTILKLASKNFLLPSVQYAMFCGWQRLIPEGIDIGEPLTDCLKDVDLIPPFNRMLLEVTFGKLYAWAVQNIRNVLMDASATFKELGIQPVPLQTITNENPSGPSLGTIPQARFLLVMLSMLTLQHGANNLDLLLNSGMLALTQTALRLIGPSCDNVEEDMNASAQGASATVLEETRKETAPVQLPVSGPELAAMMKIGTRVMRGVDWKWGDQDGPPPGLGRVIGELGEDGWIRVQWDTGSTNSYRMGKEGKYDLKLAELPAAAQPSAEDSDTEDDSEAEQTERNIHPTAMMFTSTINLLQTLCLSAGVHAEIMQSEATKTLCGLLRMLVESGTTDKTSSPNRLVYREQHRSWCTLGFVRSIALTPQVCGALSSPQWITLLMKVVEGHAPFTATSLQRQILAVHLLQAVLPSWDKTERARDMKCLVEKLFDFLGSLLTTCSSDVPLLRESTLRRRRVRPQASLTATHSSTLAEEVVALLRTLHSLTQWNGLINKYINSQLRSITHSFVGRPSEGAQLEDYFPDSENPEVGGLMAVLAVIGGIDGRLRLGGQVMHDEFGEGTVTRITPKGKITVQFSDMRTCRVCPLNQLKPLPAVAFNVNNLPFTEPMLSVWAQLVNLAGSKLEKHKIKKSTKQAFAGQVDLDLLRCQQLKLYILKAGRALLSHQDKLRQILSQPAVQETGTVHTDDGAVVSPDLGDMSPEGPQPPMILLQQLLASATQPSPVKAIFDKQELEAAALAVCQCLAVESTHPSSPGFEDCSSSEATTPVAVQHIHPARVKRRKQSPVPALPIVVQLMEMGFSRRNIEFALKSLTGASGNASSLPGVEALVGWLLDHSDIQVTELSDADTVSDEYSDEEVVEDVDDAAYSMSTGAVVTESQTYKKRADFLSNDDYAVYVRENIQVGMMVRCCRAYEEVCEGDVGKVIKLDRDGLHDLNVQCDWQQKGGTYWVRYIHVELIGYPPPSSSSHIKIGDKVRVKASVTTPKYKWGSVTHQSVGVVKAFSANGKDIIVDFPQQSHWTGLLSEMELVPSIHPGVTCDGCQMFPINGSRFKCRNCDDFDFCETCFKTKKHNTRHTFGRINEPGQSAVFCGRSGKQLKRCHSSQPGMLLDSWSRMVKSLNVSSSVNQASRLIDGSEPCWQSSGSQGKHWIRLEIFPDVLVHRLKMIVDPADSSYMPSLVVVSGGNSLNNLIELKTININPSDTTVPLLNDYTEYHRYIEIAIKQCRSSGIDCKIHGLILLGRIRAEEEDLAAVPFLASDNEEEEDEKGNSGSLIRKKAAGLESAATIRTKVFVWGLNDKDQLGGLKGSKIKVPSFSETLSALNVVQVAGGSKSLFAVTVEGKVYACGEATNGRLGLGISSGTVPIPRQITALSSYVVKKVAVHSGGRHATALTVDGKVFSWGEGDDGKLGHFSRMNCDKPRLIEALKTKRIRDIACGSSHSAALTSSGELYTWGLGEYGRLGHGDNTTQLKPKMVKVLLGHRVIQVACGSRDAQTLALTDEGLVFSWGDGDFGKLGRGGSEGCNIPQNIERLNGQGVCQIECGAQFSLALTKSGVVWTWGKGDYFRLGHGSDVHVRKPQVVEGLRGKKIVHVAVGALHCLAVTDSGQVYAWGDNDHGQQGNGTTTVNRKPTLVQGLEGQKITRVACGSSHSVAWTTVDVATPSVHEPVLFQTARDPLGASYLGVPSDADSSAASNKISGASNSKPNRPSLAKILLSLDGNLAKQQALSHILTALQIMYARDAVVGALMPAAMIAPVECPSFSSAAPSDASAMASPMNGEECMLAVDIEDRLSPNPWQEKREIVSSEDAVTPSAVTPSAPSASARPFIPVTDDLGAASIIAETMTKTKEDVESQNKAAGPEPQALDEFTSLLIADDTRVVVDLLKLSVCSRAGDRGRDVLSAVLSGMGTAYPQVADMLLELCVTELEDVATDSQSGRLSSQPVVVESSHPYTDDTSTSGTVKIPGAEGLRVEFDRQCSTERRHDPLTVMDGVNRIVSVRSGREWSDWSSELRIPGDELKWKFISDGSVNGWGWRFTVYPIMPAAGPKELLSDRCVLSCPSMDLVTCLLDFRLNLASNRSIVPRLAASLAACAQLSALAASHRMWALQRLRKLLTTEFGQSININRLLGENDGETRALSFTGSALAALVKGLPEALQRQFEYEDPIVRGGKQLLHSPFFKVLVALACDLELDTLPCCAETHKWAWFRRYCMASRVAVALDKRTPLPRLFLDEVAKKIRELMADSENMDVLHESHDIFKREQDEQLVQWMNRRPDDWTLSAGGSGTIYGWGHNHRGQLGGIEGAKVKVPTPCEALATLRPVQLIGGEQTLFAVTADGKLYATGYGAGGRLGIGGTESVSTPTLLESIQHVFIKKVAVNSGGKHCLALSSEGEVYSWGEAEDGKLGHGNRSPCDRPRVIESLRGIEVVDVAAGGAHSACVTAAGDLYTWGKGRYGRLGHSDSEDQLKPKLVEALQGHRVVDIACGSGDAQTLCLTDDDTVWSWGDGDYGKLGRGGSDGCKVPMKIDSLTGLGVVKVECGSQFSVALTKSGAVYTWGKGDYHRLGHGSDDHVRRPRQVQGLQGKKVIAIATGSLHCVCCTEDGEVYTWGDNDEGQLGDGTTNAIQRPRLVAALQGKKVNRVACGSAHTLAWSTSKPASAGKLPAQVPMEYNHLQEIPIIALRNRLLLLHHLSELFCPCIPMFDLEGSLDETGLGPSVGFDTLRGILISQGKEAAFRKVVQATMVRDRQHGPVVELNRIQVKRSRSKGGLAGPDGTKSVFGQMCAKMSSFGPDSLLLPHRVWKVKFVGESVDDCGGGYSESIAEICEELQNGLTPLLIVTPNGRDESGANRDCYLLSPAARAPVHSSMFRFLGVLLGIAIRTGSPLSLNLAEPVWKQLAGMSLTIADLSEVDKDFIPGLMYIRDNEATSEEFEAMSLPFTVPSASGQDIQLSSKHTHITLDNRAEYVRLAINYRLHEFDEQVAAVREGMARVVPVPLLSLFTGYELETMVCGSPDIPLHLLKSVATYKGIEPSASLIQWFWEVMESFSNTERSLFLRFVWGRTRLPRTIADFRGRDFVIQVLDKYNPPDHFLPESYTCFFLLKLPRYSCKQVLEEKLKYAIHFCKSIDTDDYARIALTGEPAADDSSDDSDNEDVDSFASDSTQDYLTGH",
  "assay": "immunoprecipitation with anti-BRCA1 antibody, synchronized HeLa cells",
  "experimental": "For the immunoprecipitation of a BRCA1 complex, the cell lysate was allowed to react with an anti-BRCA1 antibody at 4° C. for 1 hour. Thereafter, a precipitation reaction was carried out at 4° C. for 1 hour using Protein A and G sepharose (Invitrogen). The precipitate was washed with a 0.5% NP-40 buffer 3 times, and it was then re-suspended in an SDS sample buffer (50 mM Tris-HCl (pH6.8), 0.2% bromophenol blue, 10% glycerol, 2% SDS, and 100 mM DTT). The suspension was boiled for 3 minutes. As a peptide competition control, an equal amount of blocking peptide was added.",
  "data": [
    {"binder": "B1", "values": [
      {"measurement": "binding result", "value": "binds"}
    ]}
  ]
}
